Target: RelA homodimer (UniProt Q04206)
Assay: BLI
Details: EMSA: 10 mM Tris-HCl pH 7.5, 50 mM NaCl, 10% glycerol, 1% NP-40, 1 mM EDTA, 0.1 mg/mL salmon sperm DNA, room temp; BLI: 25 mM Tris-HCl pH 7.5, 150 mM NaCl …

RelA homodimer, sequence (Q04206 whole entry): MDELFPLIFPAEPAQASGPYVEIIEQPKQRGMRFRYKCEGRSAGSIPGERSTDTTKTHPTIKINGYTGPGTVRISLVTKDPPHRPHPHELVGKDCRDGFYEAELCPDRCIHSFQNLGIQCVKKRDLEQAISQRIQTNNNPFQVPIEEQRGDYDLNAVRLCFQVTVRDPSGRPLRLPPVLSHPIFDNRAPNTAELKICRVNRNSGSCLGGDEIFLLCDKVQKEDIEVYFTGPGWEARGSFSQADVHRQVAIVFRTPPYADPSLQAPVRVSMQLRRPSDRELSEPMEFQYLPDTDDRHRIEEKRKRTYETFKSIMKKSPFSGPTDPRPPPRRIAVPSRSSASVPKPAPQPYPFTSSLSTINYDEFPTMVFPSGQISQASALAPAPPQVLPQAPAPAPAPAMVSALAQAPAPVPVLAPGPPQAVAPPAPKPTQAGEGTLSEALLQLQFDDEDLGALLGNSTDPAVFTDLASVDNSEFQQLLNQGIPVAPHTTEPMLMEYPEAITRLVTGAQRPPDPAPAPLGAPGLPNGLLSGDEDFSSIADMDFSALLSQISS

Row | Substance | Kd
1 | IFN-b1 kB (strong) | 27 nM
2 | STX11 kB (weak) | 250 nM

Source: publication PMC12507517
